Test results taken from article PMC7162537.

Biological target: BRCA1 (UniProt P38398)
Experiment: anti-GFP co-IP from nuclear extract, blot
Conditions: reference: wild type GFP-CtIP; sites S327

Substance: CtIP (from UniProt Q99708) S327A
- binding against the reference: lost
